The source of these data is the nanobody polyreactivity screen of Harvey et al. (2022).

The data set can be described thus: yeast display, Sf9 membrane polyspecificity reagent, FACS + sequencing; frameworks hold sequencing errors. The gist of the method: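 Galactose-induced (36–48 hours) yeast carrying a synthetic nanobody display library were exposed to 10% biotinylated, detergent-solubilized Sf9 membrane reagent at 4 °C for 1 hour. FACS followed streptavidin microbead enrichment, using low and high (top ~1%) gates for expression (anti-HA) and reagent binding (streptavidin). Colony PCR, MiSeq 2 × 250 sequencing and CDR-length filtering followed. Labels for polyreactivity reflect the gate of origin.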
Consider “QVQLVESGGGLVQAGGSLRLSCAASGITVYVNVMGWYRQAPGKERELVAGISYSGGSTYYADSVKGRFTISRDNAKNTVYLQMNSLKPEDTAVYYCAADYWYYGSPVSRPYYYWGQGTQVTVSS”, for which the “polyreactivity (PSR sort gate)” value was “high polyreactivity”.
Under “QVQLVESGGGLVQAGGSLRLSCAASGITYYRNAMGWYRQAPGKERELVAAISWSGGRTYYADSVKGRFTISRDNAKNTVYLQMNSLKPEDTAVYYCNKYTHYYDYDYWGQGTQVTVSS” stands “high polyreactivity”; under “QVQLVESGGGLVQAGGSLRLSCAASGKIFNNYVMGWYRQAPGKVRELVARIDSGGSTNYADSVKGRFTISRDNAKNTVYLQMNSLKPEDTAVYYCAARKLSSYAYDYWGQGTQVTVSS”, “low polyreactivity”; under “QVQLVESGGGLVQAGGSLRLSCAASGLIFAEYAMGWYRQAPGKERELVARITSGGSTDYADSVKGRFTISRDNAKNTVYLQMNSLKPEDTALYYCAARYYSQDNNASTASDFDYWGQGTQVTVSS”, “low polyreactivity”.
The value for “QVQLVESGGGLVQAGGSLRLSCAASGLIFAHNTMGWYRQATGKERELVAAISATGDGNTYYADSLKGRFTISRDNAKNTVYLQMNSLKPEDTAVYYCNALYYDYYAEYYGESDYWGQGTQVTVSS” was “low polyreactivity”; that for “QVQLVESGGGLVQAGGSLRLSCAASGLIFAWYAMGWYRQAPGKERELVAAITGTGSSTYYADSVKGRFTISRDNAKNTVYLQMNSLKPEDTAVYYCNRGYFNSRTPTFDYWGQGTQVTVSS” was “low polyreactivity”; that for “QVQLVESGGGLVQAGGSLRLSCAASGLIFDINAMGWYRQAPGKERELVAAITWRGGSTYYADSVKGRFTISRDNAKNTVYLQMNSLKPEDTAVYYCAAGWSYRNGVGVGDFYYGYDYWGQGTQVTVSS” was “high polyreactivity”.
The value for “QVQLVESGGGLVQAGGSLRLSCAASGLIFDLYAMGWYRQAPGKERELVAAITWSGGSTYYADSVKGRFTISRDNAKNTVYLQMNSLKPEDTAVYYCAAETHLWYDFDYWGQGTQVTVSS” was “high polyreactivity”.
Turning to “QVQLVESGGGLVQAGGSLRLSCAASGLIFDPNTMGWYRQAPGKERELVAAISSGGDTNYADSVKGRFTISRDNAKNTVYLQMNSLKPEDTAVYYCAAERYYFPRSYRYGYWGQGTQVTVSS”, the “polyreactivity (PSR sort gate)” value is given as “low polyreactivity”.
Under “QVQLVESGGGLVQAGGSLRLSCAASGLIFDSDAMGWYRQAPGKERELVAAITYTGGSTYYADSVKGRFTISRDSAKNTVYLQMNSLKPEDTAVYYCAARRQRDRYGYWGQGTKVTVSS” stands “high polyreactivity”.
Under “QVQLVESGGGLVQAGGSLRLSCAASGLIFDVNTMGWYRQAPRKERELVAAITGSGGRTYYADSVKGRFTISRDNAKNTVYLQMNSLKPEDNAVYYCNARHPASGDLYRMDYWGQGTQVTVSS” stands “low polyreactivity”; under “QVQLVESGGGLVQAGGSLRLSCAASGLIFDYNAMGWYRQAPGKERELVAAISSGGSTYYADSVKGRFTISRDNAKNTVYLQMNSLKPEDTAVYYCATRRQAQYTRYYGSRQFYYWGQGTQVTVSS”, “high polyreactivity”; under “QVQLVESGGGLVQAGGSLRLSCAASGLIFDYNAMGWYRQAPGKEWELVAAISSGGSTYYADSVKGRFTISRDNANNTVYLQMNSLKPEDTAVYYCAARFSSYVRRYYYWGQGTQVTVSS”, “high polyreactivity”.
The value for “QVQLVESGGGLVQAGGSLRLSCAASGLIFDYYAMGWYRQAPGKERELVAAISSGGDTTYADSVKGRFTISRDNAKNTVYLQMNSLKPEDTAVYYCAADRWIPVYILGADGYDYWGQGTQVTVSS” was “low polyreactivity”; that for “QVQLVESGGGLVQAGGSLRLSCAASGLIFFQNAMGWYRQAPGKERELVAAITWSGGRTYYADSVKGRFTISRDNAKNTVYLQMKSLKPEDTEVYYCAADYDYPDYYAPSWPGYNYWGQGTQVTVSS” was “low polyreactivity”.
Take “QVQLVESGGGLVQAGGSLRLSCAASGLIFFSYAMGWYRQAPGKERELVAAISRRGGRTYYADSVKGRFTISRDNAKNTVYLQMNSLKPEDTAASYCATYVASHRGDRTYDHWGQCTQVTVSS”: the “polyreactivity (PSR sort gate)” value is given as “low polyreactivity”.
As for “QVQLVESGGGLVQAGGSLRLSCAASGLIFFTYAMGWYRQAPGKERELVAAITGRGGRTYYADSVKGRFTISRDNAKNTVYLQMNSLKPEDTAVYYCNAEYRYYQKTPGRYTNVEYDYWGQGTQVTVSS”, the “polyreactivity (PSR sort gate)” value is reported as “low polyreactivity”.
In the case of “QVQLVESGGGLVQAGGSLRLSCAASGLIFFVYAMGWYRQAPGKERELVAAISASGVSTNYADSVKGRFTISRDNAKNTVYLQMNSLKPEDTAVYYCAAGRGGYGYWGQGTQVTVSS”, the “polyreactivity (PSR sort gate)” value is reported as “low polyreactivity”.
Under “QVQLVESGGGLVQAGGSLRLSCAASGLIFGGNAMGWYRQAPGKERELVAAISRTGGRTYYADSVKGRFTISRDNAKNTVFLQMNSLKPEDTAVYYCAAAAQRPEGYYWGQGTQVTVSS” stands “high polyreactivity”.
For the sequence “QVQLVESGGGLVQAGGSLRLSCAASGLIFGGNAMGWYRQAPGKERELVAAITYRTGSTYYADSVKGRFTISRDNAKNTVYLQMNSLKPEDTAVYYCAAAVSLGYPVAFYYWGQGTQVTVSS”, the “polyreactivity (PSR sort gate)” value was “low polyreactivity”.
Under “QVQLVESGGGLVQAGGSLRLSCAASGLIFGRYAMGWYRPAPGKERELVAAITNSDGDTYYADSVKGRFTISRDNAKNTVYLQMNSLKPEDTAVYYCNADDALRQTSDYNYWGQGTQVTVSS” stands “low polyreactivity”; under “QVQLVESGGGLVQAGGSLRLSCAASGLIFGWYAMGWYRQAPGKEREFVASIRYGGGSTYYADSVKGRFTISRDNAKKTVYLQMNSLKPEDTAVYYCAAELSVDKYDYWGQGTQETVSS”, “low polyreactivity”; under “QVQLVESGGGLVQAGGSLRLSCAASGLIFGYYALGWYRQAPGKDRELVAAINSGGSTYYADTVKGRFTISRDNAKNTVYLQMNSLKPEDTPVYNCAARYYSEYDYWGHGTQVTVSS”, “low polyreactivity”.
Under “QVQLVESGGGLVQAGGSLRLSCAASGLIFGYYAMGWYRQAPGTEREFVAAIDGSDGTTYYADSVKGRFTISRDNAKNTVYLQMNSLKPEDTAVYYCNAESSSYSCDMGYDYWGQGTQVTVSS” stands “low polyreactivity”.
The value for “QVQLVESGGGLVQAGGSLRLSCAASGLIFGYYGMGWYRQAPGKERELVAVITDDDSTTYADSVKGRFTISRDNAKNTVYLLMNSLKPEDTAVYYCNADNLLGRFDSWGQGTQVTVSS” was “low polyreactivity”; that for “QVQLVESGGGLVQAGGSLRLSCAASGLIFHNNAMGWYRQAPGKERELVARITRSCGSTYYADSVKGRFTISRDNAKNTFYLQMNSLKPEDTAVYYCATDALFDSGGMDYWGQGTQVTVSS” was “low polyreactivity”; that for “QVQLVESGGGLVQAGGSLRLSCAASGLIFIAYAMGWYRQAPGKERELVAAISSSGGSTYYADSVKGPFTISRDNAKNTFYLQMNSLKPEDTGVYYCAADRFDWGTGRYGYWVQGTQVTVSS” was “low polyreactivity”.
On to “QVQLVESGGGLVQAGGSLRLSCAASGLIFIAYSMGWYRQAPGKEREFVAAITWNGVSTYYADSVKGRFTISRDNAKNTVYLQMNSLKPEDTAVYDCNADYDFSPWAYEYWGQGTQVTVSS”, for which the “polyreactivity (PSR sort gate)” value is “high polyreactivity”.
The value for “QVQLVESGGGLVQAGGSLRLSCAASGLIFIKNAMGWYRQAPGKERELVAAITRGSSTTYADSVKGRFTISRDNAKNTVYLQMNSLKPEDPAVYYCAAQYGGGYLKPYRREYWGQGTQVTVSS” was “high polyreactivity”; that for “QVQLVESGGGLVQAGGSLRLSCAASGLIFKKYTMGWYRQAPGKERELVASISKSGGSTYYADSVKGRFTISRDNAKNTVYLLMNSLKPDDTAVYYCAVGSTDRVSAQGSYFTYDYWGQGTQVNVSS” was “low polyreactivity”.
In the case of “QVQLVESGGGLVQAGGSLRLSCAASGLIFKSYAMGWYRQAPGKERELVATISSSGSTNYADSVKGRFTISRDNAKNTVYLQMNSLKPEDTAVYYCNADDEVWWWIYDYWGQGTQVTVSS”, the “polyreactivity (PSR sort gate)” value is given as “low polyreactivity”.
The value for “QVQLVESGGGLVQAGGSLRLSCAASGLIFKVYAMGWYRQAPWKERELVAAITYSGGSTDYADSVKGRFTISRDNAKNTVYLQMNSLTPEDTAVYYCNVEKVGHVNSYGYDYWGQGTQVNVSS” was “low polyreactivity”.
The value for “QVQLVESGGGLVQAGGSLRLSCAASGLIFKYNAMGWYRQAPGKERELVAAISTSGGSTYYADSVKGRFTISRDNAKNTVYLQMNSLKPEDTAVYYCNAVAGRPFRYYYWGQGTQVTVSS” was “high polyreactivity”; that for “QVQLVESGGGLVQAGGSLRLSCAASGLIFKYNDMGWYRQAPGTEREFVAAISWRGGRTYYADSVKGRFTISRDNEKNTVYLQMNSLKPEDTAVYYCNAGYRIAQFPSPHIAYYGYGYWGQGTQVTVSS” was “high polyreactivity”; that for “QVQLVESGGGLVQAGGSLRLSCAASGLIFLWYVMGWYRQAPGKEREFVAAISWNGGGTYYADSVKGRFTISRDNAKNTVYLQMNSLKPDDTAVYYCAAQTYSNDYWGQGTQVTVSS” was “low polyreactivity”.
On to “QVQLVESGGGLVQAGGSLRLSCAASGLIFNIYAMGWYRQAPGKERELVAAISKSGGSTYYADSVKGRFTISRDNAKNTVYLQMNSLKPEDTAVYYCAAPYLVRSQRYYYWGQGTQVTVSS”, for which the “polyreactivity (PSR sort gate)” value was “high polyreactivity”.
Under “QVQLVESGGGLVQAGGSLRLSCAASGLIFPRYGMGWYRQAPGKERELVAAISWSGGSTYYADSVKGRFTISRDNAKNTVYLQMNSLKPEDTAVYYCAVLSNRGVYGSDYWGQGTQVTVSS” stands “high polyreactivity”; under “QVQLVESGGGLVQAGGSLRLSCAASGLIFPSYAMGWYRQAPGKERELVATINRGSRTNYADSVKGRFTISRDNAKNTVYLQMNSLKPEDTAVYYCAAHYTTFIPSPDGDYLGQGTQVTVSS”, “low polyreactivity”.
On to “QVQLVESGGGLVQAGGSLRLSCAASGLIFPYYALGWYRQAPGKERELVAAISWRGGNTYYADSVKGRFTISRDNAKNTVYLQMNSLKPEDTAVYYCNTVQYRNEMGYWGQGTQVTVSS”, for which the “polyreactivity (PSR sort gate)” value is reported as “high polyreactivity”.
The value for “QVQLVESGGGLVQAGGSLRLSCAASGLIFQHNAMGWYRQAPGKEMELVAAISRSAGSTYYADSVKGRFTISRDKAKNTVYLQMNSLKPEDTAVYYCARQYGYQPVRYGYWGQGTQVTVSS” was “low polyreactivity”.
